Consider 16 sequences from the supplement of paper PMC9170038.

The subject of one data set is MS2 coat protein. The data set can be described thus: apparent KD of MS2 coat protein; higher = weaker reporter binding. The note with it: Eterna round: R107. As to the method: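 RNA-MaP round R107: designed RNA switches with theophylline, tryptophan, arginine or FMN aptamers are transcribed on-chip within common flanks. They are titrated with SNAP-549-labelled MS2 coat protein in RNA-MaP buffer (100 mM Tris pH 7.5, 80 mM KCl, 4 mM MgCl2), without ligand or with the indicated ligand. Median apparent KD per design.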

Data set [1] deals with K4 kissing-loop RNA reporter. As to the kind of experiment: apparent KD of K4 kissing-loop reporter; higher = weaker reporter binding. The note with it: Eterna round: R107. As to the method: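 RNA-MaP round R107: designed RNA switches with theophylline, tryptophan, arginine or FMN aptamers are transcribed on-chip within common flanks. They are titrated with a labelled K4 kissing-loop RNA reporter in RNA-MaP buffer (100 mM Tris pH 7.5, 80 mM KCl, 4 mM MgCl2), without ligand or with the indicated ligand. Median apparent KD per design.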

[2] abbreviates: input ligand: theophylline 20 uM.
Setting [3] is: input ligand: theophylline 2 mM.
Where [4] appears, read: input ligand: tryptophan 2.4 mM.
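For apparent KD of K4 kissing-loop reporter in this document: bound reporter read as fluorescence of individual clusters on recovered sequencing chips by microscopy, with normalized cluster intensities fitted with a binding model.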

Turning to “AUGCAGAACACGGCCGCCACUCCAUGUAUACAUGAGGAUCACCCAUGUAAUUUGUAUUUUUUAUAGAGGACCGGGUGAAAUGCAA [JR_SSTryptoB_Sub012]”, the “apparent KD of MS2 coat protein” value in the data set on MS2 coat protein (input ligand: arginine 13.2 mM) came to 26.7 nM; with MS2 coat protein (setting [2]), 38.7 nM; with MS2 coat protein (setting [3]), 42.9 nM.

Regarding “GCAUAGUAAAAUGAUACCAGAGUCAAAACAGACAUGAGGAUCACCCAUGUGCAUAUACAACUCCCUUGGCAGCAUUAAAACGGGA [theeternabot_sameState_MS2_Theo_B_28]”, the “apparent KD of MS2 coat protein” value stood at 14.2 nM in the data set on MS2 coat protein (input ligand: arginine 13.2 mM), 18.7 nM in the data set on MS2 coat protein (setting [2]) and 18.2 nM in the data set on MS2 coat protein (setting [4]).

On to “GGACUAACCAGAAGGAGCGGCGCGCAGAAACUGCAAUUUCCUCCACACGAGGAUCACCCGUGUCAGGUAGGUCGCUGGUUAGUCG [ArgBX 29]”, for which the “apparent KD of MS2 coat protein” value with MS2 coat protein (input ligand: arginine 13.2 mM) was 13.1 nM; in the data set on MS2 coat protein (input ligand: none) it was 11.4 nM; in the data set on MS2 coat protein (setting [2]), 15.1 nM; in the data set with MS2 coat protein (setting [3]), 12.9 nM; in the data set with MS2 coat protein (setting [4]) it was 12.3 nM.

On to “ACACGAAGCUGAAGGAGCGUGAUAUAAAUUUUUACAUGAGGAUCACCCAUGUUUCAUCGAUCACAGGUAGGUCGCAGAUGCGUGA [JR_SSArginiB_Sub013]”, for which the “apparent KD of MS2 coat protein” value was 15.2 nM with MS2 coat protein (input ligand: arginine 13.2 mM); 14.4 nM with MS2 coat protein (input ligand: none); 16.9 nM in the data set on MS2 coat protein (setting [2]); 16.9 nM in the data set on MS2 coat protein (setting [3]); 14.8 nM in the data set with MS2 coat protein (setting [4]).

Turning to “CCCUCGUCAACGGCCGCCACUGUGAUUCACUAAGAUAAUAUUGCACAUGAGGAUCACCCAUGUCUCAGGACCGGGUUGGUGUGUC [theeternabot_sameState_MS2_Trp_B_38]”, the “apparent KD of MS2 coat protein” value was determined as 82 nM in the data set with MS2 coat protein (input ligand: arginine 13.2 mM), 128 nM with MS2 coat protein (setting [2]) and 131 nM with MS2 coat protein (setting [3]).

Consider “UAUUAAUUGUCAGGAUAUCGAAAUCGAGUGAUGUUCGUAAAUUAAUUAUUAUUAAUAAUAUUUAUACGAGAAGGGACAUUAUUUA [JR_SSFMNB_Sub002]”, for which the “apparent KD of K4 kissing-loop reporter” value in data set [1] (input ligand: FMN 200 uM) is 236 nM; in data set [1] (input ligand: arginine 13.2 mM), 671 nM; in data set [1] (input ligand: none), 758 nM; in data set [1] (setting [2]), 780 nM; in data set [1] (setting [4]), 532 nM.

As to “AUUUAUUCGAGUGAUGUUCGUGUUUUUUCAGAGGAUAUGCGUAAUAGCAGAAGGCUGUUUUAUAUUAUAUUUUGAUUUUUUUAAA [JR_Nu_ExcFMNA_Sub025]”, the “apparent KD of K4 kissing-loop reporter” value in data set [1] (input ligand: FMN 200 uM) worked out at 92.2 nM; in data set [1] (input ligand: arginine 13.2 mM) it was 123 nM; in data set [1] (input ligand: none), 86.1 nM; in data set [1] (setting [2]) it was 106 nM; in data set [1] (setting [4]), 73.5 nM.

For “AUGGGCACGUCGGCCGCCACUACACGGUCCCGCGAGGGCCAGUGAUGUUGGUCGACGUGCCGUUGUAGGACCGGGACGUGGCUGU [Teatondi]”, the “apparent KD of K4 kissing-loop reporter” value in data set [1] (input ligand: FMN 200 uM) worked out at 125 nM; in data set [1] (input ligand: arginine 13.2 mM), 54.5 nM; in data set [1] (input ligand: none) it was 79 nM; in data set [1] (setting [2]) it was 103 nM; in data set [1] (setting [4]), 83.3 nM.

“AGUAGUUGGGCGGCCGCCACUAGAACAGCUUUGCCAAAGGCAGAGCUCUAGAGUGAUGUUCUGGCUAGGACCGGGUCCAACUACA [#01 K4 Tryptophan B Same State]”: the “apparent KD of K4 kissing-loop reporter” value in data set [1] (input ligand: FMN 200 uM) stood at 930 nM; in data set [1] (input ligand: arginine 13.2 mM), 594 nM; in data set [1] (input ligand: none), 932 nM; in data set [1] (setting [2]), 980 nM; in data set [1] (setting [4]), 417 nM.

For “AAAAUAACCCAGUGAUGUUGGUAACCAGAUACCAGCGACGAAAGUCGCCCUUGGCAGCUGUGGACGUACAAAAUAAGUACGUCCU”, the “apparent KD of K4 kissing-loop reporter” value in data set [1] (input ligand: FMN 200 uM) is 686 nM; in data set [1] (input ligand: arginine 13.2 mM) it was 765 nM; in data set [1] (input ligand: none) it was 859 nM; in data set [1] (setting [2]) it was 583 nM; in data set [1] (setting [4]), 649 nM.

For “GUAGUGAUGUUACGAAUAUUCCAUCAUAGAGAGGAUAUUGUUCCUUCGAGAAGGUUCUGAGAAUUAAAAUUUAAUAAAAUGAAGG [Exclusion FMN A GF 1]”, the “apparent KD of K4 kissing-loop reporter” value is 246 nM in data set [1] (input ligand: FMN 200 uM); 302 nM in data set [1] (input ligand: arginine 13.2 mM); 277 nM in data set [1] (input ligand: none); 357 nM in data set [1] (setting [2]); 160 nM in data set [1] (setting [4]).

Regarding “GGGCGUGGCGCGGCCGCCACUGCGCCUGGGUGCUCGCUGAGUGAUGUUCGUCGGCGGUUGGGUGGUAGGACCGGGUGCUGGCCGG [BDazzled - #12 SS Tryptophan B]”, the “apparent KD of K4 kissing-loop reporter” value in data set [1] (input ligand: FMN 200 uM) came out at 773 nM; in data set [1] (input ligand: arginine 13.2 mM) it was 318 nM; in data set [1] (input ligand: none) it was 581 nM; in data set [1] (setting [2]), 595 nM; in data set [1] (setting [4]), 471 nM.

Consider “GAUAAUAGCACGGCCGCCACUGAAAAGCCGUGCUAUACGAGUGAUGUUCGUAAUUAUACGGGAUUCAGGACCGGGUGCAACGGUA [Tryp B SS t1]”, for which the “apparent KD of K4 kissing-loop reporter” value in data set [1] (input ligand: FMN 200 uM) is 122 nM; in data set [1] (input ligand: arginine 13.2 mM), 115 nM; in data set [1] (input ligand: none), 139 nM; in data set [1] (setting [2]) it was 158 nM; in data set [1] (setting [4]), 98.1 nM.

As to “UGAUACCAGACGGCCGCCACUGGGACCGGGAGUGAUGUUCCGAAAAUUAAAUGCUCGGCCGCCACUAGGACCGGGUCUGGUAUCU [TrypBX 29 #DoubleAptamer #SwitchBubble]”, the “apparent KD of K4 kissing-loop reporter” value was determined as 727 nM in data set [1] (input ligand: FMN 200 uM); 407 nM in data set [1] (input ligand: arginine 13.2 mM); 446 nM in data set [1] (input ligand: none); 231 nM in data set [1] (setting [2]); 453 nM in data set [1] (setting [4]).

Take “CGUACAUCUUUUCGCGGAGUGAUGUUCUCGCGAGGACCGGUACGGCCGCCACUCGAAUUGUUAUCUGGCGAAAAUUGUCUAUAAA [theeternabot_exclusion_KL_Trp_A_33]”: the “apparent KD of K4 kissing-loop reporter” value in data set [1] (input ligand: FMN 200 uM) was found to be 393 nM; in data set [1] (input ligand: arginine 13.2 mM), 273 nM; in data set [1] (input ligand: none) it was 352 nM; in data set [1] (setting [2]), 318 nM; in data set [1] (setting [4]) it was 410 nM.

Take “GCUGAUCGUUUUCCACGAUGCGGCUAAUAAAAGGAUAUUGGUAUAUCAAGAAGGUUUGUUCUGUGUAGUGAUGUUGCACCGUGUU [theeternabot_sameState_KL_FMN_A_28]”: the “apparent KD of K4 kissing-loop reporter” value amounted to 77.5 nM in data set [1] (input ligand: FMN 200 uM); 101 nM in data set [1] (input ligand: arginine 13.2 mM); 80.5 nM in data set [1] (input ligand: none); 111 nM in data set [1] (setting [2]); 72.5 nM in data set [1] (setting [4]).
